Numbering of substitutions follows the chain as printed. Numbers in names are those of the source.
Biological target: T1, C. elegans GluClβWT subunit (GLC-2) (C. elegans) (UniProt Q17328)
T1 sequence: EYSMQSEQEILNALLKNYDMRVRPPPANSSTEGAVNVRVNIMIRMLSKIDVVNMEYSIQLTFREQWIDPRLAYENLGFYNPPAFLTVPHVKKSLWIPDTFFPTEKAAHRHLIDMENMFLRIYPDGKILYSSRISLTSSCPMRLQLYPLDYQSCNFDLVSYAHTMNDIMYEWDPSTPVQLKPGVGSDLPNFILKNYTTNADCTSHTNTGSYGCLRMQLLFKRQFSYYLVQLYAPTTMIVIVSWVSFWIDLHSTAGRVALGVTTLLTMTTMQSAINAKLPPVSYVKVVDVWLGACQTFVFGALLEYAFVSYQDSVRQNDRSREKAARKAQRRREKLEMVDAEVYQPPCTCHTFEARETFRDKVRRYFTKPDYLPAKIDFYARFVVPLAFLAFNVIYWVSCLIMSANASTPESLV

B1: C. elegans GluClα (GLC-1) subunit, F276A (receptor)
chain: QQARTKSQDIFEDDNDNGTTTLESLARLTSPIHIPIEQPQTSDSKILAHLFTSGYDFRVRPPTDNGGPVVVSVNMLLRTISKIDVVNMEYSAQLTLRESWIDKRLSYGVKGDGQPDFVILTVGHQIWMPDTFFPNEKQAYKHTIDKPNVLIRIHNDGTVLYSVRISLVLSCPMYLQYYPMDVQQCSIDLASYAYTTKDIEYLWKEHSPLQLKVGLSSSLPSFQLTNTSTTYCTSVTNTGIYSCLRTTIQLKREFSAYLLQLYIPSCMLVIVSWVSFWFDRTAIPARVTLGVTTLLTMTAQSAGINSQLPPVSYIKAIDVWIGACMTFIFCALLEFALVNHIANKQGVERKARTEREKAEIPLLQNLHNDVPTKVFNQEEKVRTVPLNRRQMNSFLNLLETKTEWNDISKRVDLISRALFPVLFFVFNILYWSRFGQQNVLF
Q: For B1, which whole-cell current amplitude in response to the Glu-EC50 concentration, CHO cells co-transfected with both subunits, +60 mV is on record?
A: 3.1 nA

B2: C. elegans GluClα (GLC-1) subunit, SSS→GSD (positions 236–238) (receptor)
chain: B1 chain with S216G, S218D, A256F
Q: How did the whole-cell current amplitude in response to the Glu-EC50 concentration, CHO cells co-transfected with both subunits, +60 mV turn out when B2 was run?
A: 2.9 nA

B3: C. elegans GluClα (GLC-1) subunit, F276W (receptor)
chain: B1 chain with A256W
Q: With B3 as the binder, how does the whole-cell current amplitude in response to the Glu-EC50 concentration, CHO cells co-transfected with both subunits, +60 mV read?
A: 3 nA

B4: C. elegans GluClα (GLC-1) subunit, P192M (receptor)
chain: B1 chain with P172M, A256F
Q: With B4 as the binder, how does the whole-cell current amplitude in response to the Glu-EC50 concentration, CHO cells co-transfected with both subunits, +60 mV read?
A: 3.2 nA

B5: C. elegans GluClα (GLC-1) subunit, P192Y (receptor)
chain: B1 chain with P172Y, A256F
Q: For B5, which whole-cell current amplitude in response to the Glu-EC50 concentration, CHO cells co-transfected with both subunits, +60 mV is on record?
A: 2.1 nA
